Consider one substance from patent publication US20240336918.

The target of data set [1] is T1, LIN28A (UniProt Q9H9Z2).
T1 sequence: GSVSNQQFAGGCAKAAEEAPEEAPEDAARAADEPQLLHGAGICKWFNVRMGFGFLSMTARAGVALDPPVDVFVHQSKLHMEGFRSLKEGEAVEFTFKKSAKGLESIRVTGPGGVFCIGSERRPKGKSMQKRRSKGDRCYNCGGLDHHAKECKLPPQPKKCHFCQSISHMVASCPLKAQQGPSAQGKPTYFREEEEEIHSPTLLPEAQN
The experiment in a line: filter. The note with it: transition between unbound and bound at ~10 nM; aggregates retained on PES at 50 nM and above.

In data set [2] the target is T1, LIN28A. The experiment in a line: EMSA. Conditions: higher-order aggregates above 50 nM.

With pre-let-7a miRNA, the dissociation constant Kd (commonly the constant that tells how readily two partners part at equilibrium) in the data set with LIN28A [1] amounted to 10 nM; in the data set with LIN28A [2], 25 nM.
